Assay: Stability of radiotracers in PBS / kit-based reaction solution
Assay type: physicochemical
Details: ^99mTc and ^188Re radiotracers; radio-HPLC
Protocol: The new radiotracers, [^64Cu(DP^An-PSMAt)2]^+ and [^64Cu(DP^MEP-PSMAt)2]^+, were purified using reverse-phase HPLC, reformulated in aqueous PBS (phosphate buffered saline) solution, and incubated with human serum at 37 °C. […] Both ^64Cu radiotracers were also stable in aqueous PBS solution (see SI).
Both [^99mTcO2(DP^An-PSMAt)2]^+ and [^99mTcO2(DP^MEP-PSMAt)2]^+, prepared using kits, were incubated at 37 °C in human serum for up to 24 h. […] [^188ReO2(DP^An-PSMAt)2]^+ and [^188ReO2(DP^MEP-PSMAt)2]^+, prepared using kits and then isolated using reverse-phase HPLC in >98% radiochemical purity, were also incubated in human serum under the same conditions. […] These ^99mTc and ^188Re radiotracers were also stable when left to stand in kit-based reaction solutions, or in PBS solution (see SI for full chromatograms).
64Cu: A solution of either [ 64Cu(DPAn-PSMAt)2]+ or [64Cu(DPMEP-PSMAt)2]+ (purified, >98% RCP, 0.6– 0.8 MBq in 8–20 µL PBS) was diluted with PBS (350 µL total volume) and incubated at 37 °C. After 24 h, the sample was analysed by analytical C18 radio-HPLC (Method 2). […]
Each aliquot was treated with an equal amount of ice -cold MeCN to precipitate serum proteins and centrifuged (10,000 rpm, 10 min). The supernatant was isolated, MeCN evaporated under a stream of N2, and the resultant solution analysed by analytical C18 radio-HPLC (Method 2). […]

| Compound | stability when left to stand in kit-based reaction solutions, or in PBS solution |
| --- | --- |
| COc1ccc(P(/C(C(=O)O)=C(/C(=O)NCCOCCOCCOCCOCCC(=O)NCCCC[C@H](NC(=O)N[C@@H](CCC(=O)O)C(=O)O)C(=O)O)P(c2ccc(OC)cc2)c2ccc(OC)cc2)c2ccc(OC)cc2)cc1 [[^99mTcO2(DP^An-PSMAt)2]^+, metal not drawn] | stable |
| COCCOc1ccc(P(/C(C(=O)O)=C(/C(=O)NCCOCCOCCOCCOCCC(=O)NCCCC[C@H](NC(=O)N[C@@H](CCC(=O)O)C(=O)O)C(=O)O)P(c2ccc(OCCOC)cc2)c2ccc(OCCOC)cc2)c2ccc(OCCOC)cc2)cc1 [[^99mTcO2(DP^MEP-PSMAt)2]^+, metal not drawn] | stable |
